To fix the notation:
B1: TPR 5TU (parent)
chain: GGAUCUUCUCGAUCUAACAAAAAAGACAAAUCUGCCACAAAGCUUGAGAGCAUCUUCGGAUGCAGAGGCGGCAGCCUUCGGUGGCGCGAUAGCGCCAACGUUCUCAACUAUGACACGCAAAACGCGUGCUCCGUUGAAUGGAGUUUAUCAUG

Variants at the floor of the assay were thinned out.

In the series the parent is B1. As to the kind of experiment: polymerase ribozyme fitness, log enrichment relative to wild type (log ratio); higher = more active; in vitro selection for triplet polymerase activity. In a few lines: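 Mutant libraries of each subunit of a heterodimeric triplet polymerase ribozyme were built by PCR and transcribed. Each library went through one round of in vitro selection in triplicate: annealing with biotinylated primer, partner subunit and triplets, frozen incubation at −7 °C, gel excision of extended constructs, streptavidin-bead capture and RT-PCR. Input and output libraries were Illumina-sequenced; only genotypes with ≥10 input reads and ≥1 read per output were kept. Fitness is log2(genotype enrichment/wild-type enrichment), using inverse-variance-weighted replicate averages.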
As to GGAUCUUCUCGAUCUAACAAAAAAGACAAAUCUGCCACAAAGCGUGCGAGCAUCUUCGGAUGCAGGAGCGGCAGCCUUCGGUGGCGAGAUAGCGCGAACGUUCUCAACUAUGACACGCAAAACGCGUGCUCCGUUGAAUGGAGUAUAUCAUG [U44G A47C A66G G67A C87A C96G U145A], the “polymerase ribozyme fitness (log ratio)” value is at most -4.2.
Under GGAUCUUCUCGAUCUAACAAAAAAGACAAAUCUGCCACAAAGCGUGAGAGCAUCUUCGGAUGCAGAGGCGGCAGCCUUCGGUGGCGCGAUCGCGCCAACGUUCUCAACUAUGACACGCAAAACGCAUGCUCCGUUGAAUGGACUUUAUCAUG [U44G A91C G126A G143C] stands at most -4.2; under GGAUCUUCUCGAUCUAACAAAAAAGACAAAUCUGCCACAAAGCGUGAAAGCAUCUUCGGAUGCAGAGGCGGCAGCCUUCGGUGACGCGAUAGCGCCAACGUUCUCAACUAUGACACGCAAAACGCGUGCUCCGUUGAAUGGAGUUUAUCAUG [U44G G48A G84A], at most -4.2.
Next, GGAUCUUCUCGAUCUAACAAAAAAGACAAAUCUGCCACAAAGCUAGUGAGCAUCUUCGGAUGCAGAGGCGGCAGCCUUCUGUGGCGCGAAAGCGCCAACGUUCUCAACUAUGACACGCAAAACGCGUGCUCCGUUGAAUGGAGUUUAUCAUG [U45A A47U G80U U90A]: at most -4.2.
With GGAUCUUCUCGAUCUAACAAAAAAGACAAAUCUGCCACAAAGCGUGAGAGCAUCUUCCCAAGCAGAGGCGGCAGCCUUCGGUGGCGCGAUAGCCCCAACGUUCUCAACUAUGACACGCAAAACGCGUGCUCCGUUGAAUGGAGUUUAUCAUG [U44G G58C G59C U61A G94C], the “polymerase ribozyme fitness (log ratio)” value was at most -4.2.
Next, GGAUCUUCUCGAUCUAACAAAAAAGACAAAUCUGCCACAAAGCGUCAGAGCAUCUUCGGCAGCAGAGGCGGCAGCCUUCGGUGGCGCGAUAGCGUCAACGUUCUCAACUAUGACACGCAAAACGCGUGCUCCGUUGAAUGGAGUUUAUCAUG [U44G G46C A60C U61A C95U]: at most -4.2; GGAUCUUCUCGAUCUAACAAAAAAGACAAAUCUGCCACAAAGCGUGAGAGCAUCUUCGGAUGCAACGGCGGCAGCCUUCGGUGGCGCGAUGGCGCCAACGUUCUCAACUAUGACACGCAAAACGCGUGCUCCGUUGAAUGGAGUUUAUCAUG [U44G G65A A66C A91G]: at most -4.2; GGAUCUUCUCGAUCUAACAAAAAAGACAAAUCUGCCACAAAGCGGGAGAGCAUUUUCGGAUGCAGAGGCGGCAGCCUUCGGUGGCGAGAUAGCGCCAACGUUCUCAACUAUGACACGCAAAACGCGUGCUCCGUUGAAUGGAGUUUAUCAUG [U44G U45G C54U C87A]: at most -4.2.
Next, GGAUCUUCUCGAUCUAACAAAAAAGACAAAUCUGCCACAAAGCCUGAGAGCAUCUUCGGAUGCAGAGGCGGCAGCCUUCGGUGGCGCGAUAGCCCCAACGUUCUCAACUAUGACACGCAAAACGCGUGCUCCGUUGAAUGGAGUUAAUCAUG [U44C G94C U146A]: at most -4.2; GGAUCUUCUCGAUCUAACAAAAAAGACAAAUCUGCCACAAAGCGUGAGAGCAUCUUCGGAUGCAGAGGCGGCAGUCUUCGGUGGCGCGGUAGCGCCAACGUUCUCAACUAUGACACGCAAAACGCGUGCUCCGUUGAAUGGAGUUUAUCAUG [U44G C75U A89G]: at most -4.2.
GGAUCUUCUCGAUCUAACAAAAAAGACAAAUCUGCCACAAAGCGUGAGAGCAUCUUCGGACGCAGAGGCGGCAGCCUUCGGUGGCGCGAUAGCGCCAACGUUCUCAACUAUGACACGCAAAACGCGUGCUCCGUUGAAUGGAGUUUAUCAUG [U44G U61C]: the “polymerase ribozyme fitness (log ratio)” value is at most -4.2.
With GGAUCUUCUCGAUCUAACAAAAAAGACAAAUCUGCCACAAAGCGUGAGAGCAUCUUCGGUUGCAGAGGCGGCAGCCUUCGGUGGCGCGAUAGCGCCAAGGUUCUCAACUAGGACACGCAAAACGCGUGCUCCGUUGAAUGCAGUUUAUCAUG [U44G A60U C99G U111G G141C], the “polymerase ribozyme fitness (log ratio)” value is at most -4.2.
Next, GGAUCUUCUCGAUCUAACAAAAAAGACAAAUCUGCCACAAAGCUAGCGAGCAUCUUCGGAUGCAGAGGCGGCAGCCUUCGGUGGCGCGAUAGCGCCAACGUUCUCAACUAUGACACGCAAAACGCGUGCUCCGUUGAAUGGAGUUUAUCAUG [U45A A47C]: -3.93; GGAUCUUCUCGAUCUAACAAAAAAGACAAAUCUGCCACAAAGCGUGAGAGCAUUUUCGGAUGCAGAGGCGGCAGCCUUCGGUGGGGCGAUAGCGCCAACGUUCUCAACUAUGACACUCAAAUCGCGUGCUCCGUUGAAUGGAGUUUAUCAUG [U44G C54U C85G G117U A122U]: at most -4.2; GGAUCUUCUCGAUCUAACAAAAAAGACAAAUCUGCCACAAAGCGUGAGAGCCUCUUCGGAUGCAGAGGCGGCAGCCUUCGGUGGCGCGAUAUCGCCAACGUUCUCAACUAUGACACGCAAAACGCGUGCUCCGUUGAAUGAAGUUUAUCAUG [U44G A52C G92U G141A]: at most -4.2.
Next, GGAUCUUCUCGAUCUAACAAAAAAGACAAAUCUGCCACAAAGCGUGAGAGCAUGUUCGGAUGCAGAGGCGGCAGCGUUCGGUGGAGCGAUAGCGCCAACGUUCUCAACUAUGACACGCAAAACGCGUGCUCCGUUGAAUGGAGUUUAUCAUG [U44G C54G C76G C85A]: at most -4.2; GGAUCUUCUCGAUCUAACAAAAAAGACAAAUCUGCCACAAAGCGUGAGAGCAUCUUCGGAUGCAGAGGCGGCAGCCUUCGGUGGCGCGAUAGUGCCAACGUUCUCAACUAUGACACGCAAAACGCGUGCUCCGUUGGAUGGAGUUUACCAUG [U44G C93U A137G U148C]: at most -4.2; GGAUCUUCUCGAUCUAACAAAAAAGACAAAUCUGCCACAAAGCUAGUGAGCAUCUUCGGAUGCACUGGCGGCAGCCUUCGGUGGCCGGAUAGCGCCAACGUUCUCAACUAUGACACGCAAAACGCGUGCUGCGUUGAAUGGAGUUUAUCAUG [U45A A47U G65C A66U G86C C87G C131G]: at most -4.2.
Turning to GGAUCUUCUCGAUCUAACAAAAAAGACAAAUCUGCCACAAAGCGGGAGAGCAUCUUCGGAUGCAGAGGCGGGAGCCUUCGGUGGCGCGAUAGCGCCAACGUUCUCAACUAUGACACGCAAAACGCGUGCUCCGUUGAAUGGAGCUUGUCAUG [U44G U45G C72G U144C A147G], the “polymerase ribozyme fitness (log ratio)” value was at most -4.2.

The record behind these values is the RNAGym collection of RNA variant scans (doi:10.1073/pnas.2313332121).
